Measurements reported in US11547721B2, “Magnetic nanoparticles for use in the treatment of tumors” (CONSIGLIO NAZIONALE DELLE RICERCHE, priority 2018, dated 2023).

B1: NCs-PEG-Pt-scFv (conjugate)
scFv: NVQLVESGGGLVQPGRSLRLSCTTSGFTFGDYAMIWARQAPGKGLEWVSSISSSSSYIYYADSVKGRFTISRDNAKNSLYLQMNSLRAEDTAVYYCARERYDFWSGMDVWGKGTTVTVSSGGGGSGGGGSGGSAQSALTQPASVSGSPGQSITISCTGTSSDVGSYNLVSWYQQHPGKAPKLMIYEGSKRPSGVSNRFSGSKSGNAASLTISGLQAEDEADYYCQSYDSSLSVVFGGGTKLTVLGAAAHHHHHHGAAEQ
B2: NCs_scFv (conjugate)
scFv: B1 scFv

Key:
IGROV-1 cells [1] = experiment: Cytotoxicity, cell viability assay with Presto blue; format: cell-based
Description: Cytotoxicity studies have been conducted to confirm the activity of the platinum-based chemotherapeutic agent attached to the nanocubes. IGROV-1 cells were incubated with nanocubes functionalized with oxaliplatin and antibody (in FIG. 3a indicated as NCs_OHP_C4) for 24, 48 and 72 hours at Fe concentration equal to 0.05 g/L, 0.1 g/L and 0.15 g/L, corresponding to 1.3, 2.6 and 3.9 μM of oxaliplatin chemotherapeutic agent. Cell viability has been verified in an assay with Presto blue. […] The toxicity of the chemotherapeutic agent alone was administered, administered to the cells for 24 hours, 48 hours and 72 hours at the concentration of oxaliplatin corresponding to the same quantity loaded on the nanocubes. […] It is also important to note that in these experiments the control consisted of nanocubes with polymeric coating, functionalised with PEG-NTA-C4, but lacking oxaliplatin, prepared as described above.
Cytotoxicity data were also collected for longer-time treatments, to verify the toxicity of oxaliplatin loaded on the nanocubes according to the invention over extended periods of time. In fact, since the action of platinum-based chemotherapy drugs involves their interleaving within the cell's DNA, the adverse effects of treatment with these drugs should be more evident at longer times after exposure to the drug. Then, after exposure of the IGROV-1 cells to the nanocubes functionalized with antibody and drug for 24, 48 and 72 hours of treatment respectively, the supernatant was removed and the cells were kept in a fresh culture medium for a further 24, 48 or 72 hours. The viability of these cells was verified by analysis with blue Presto immediately after direct exposure to the nanocubes and at 24, 48 and 72 hours after incubation.

IGROV-1 cells [2] = experiment: Hyperthermia combined with release of chemotherapeutic agent, viability with Presto blue; format: cell-based; details: for cell viability at 24 hours / cell viability at 48 hours / cell viability at 120 hours: with hyperthermia (2 x 30 min, 42° C., 27 kA m^−1, 182 kHz), 5.5 g Fe/L
Description: Hyperthermia experiments were conducted on cells treated with the invention's nanocubes to monitor the efficiency of nanoparticles in killing tumor cells with heat and improving the toxicity mediated by oxaliplatin. In practice, 3×10^6 IGROV-1 cells were incubated with 5.5 g of Fe/L of invention nanocubes functionalized with oxaliplatin and NCs-PEG-Pt-C4 antibody fragment, and exposed to a magnetic field of 27 kA m^−1 at frequency of 182 kHz, so as not to exceed the biological limit (Hf=5×10^9 A m^−1 s^−1). Two consecutive 30-minutes hyperthermia treatments were then performed, each with a maximum temperature reached in these conditions of 42° C. Also included in this study were: untreated cells, cells incubated with nanocubes functionalized only with antibody without oxaliplatin (exposed and not exposed to hyperthermia), and cells incubated with nanocubes functionalized with antibody and oxaliplatin not exposed to hyperthermia. A control experiment was also performed by incubating the cells with free oxaliplatin at the same amount of platinum loaded on the nanocubes (28 μg of platinum, corresponding to 140 μM of oxaliplatin).
After the hyperthermal treatment, the cells were washed to remove excess nanocubes present and re-seeded in a fresh culture medium (5×10^4 cells per well for each cell sample), so as to monitor their vitality at 24, 48 and 120 hours after treatment, with an assay with blue Presto. […] After 120 hours, the combined and concomitant action of hyperthermia and release of the chemotherapeutic agent made the cells unable to recover their growth (vitality of about 40% at 120 hours).

[3] = system: A431-tFR cells (A431 transfected with folate receptor gene α-FR); experiment: Flow cytometry (FACS) binding of nanocubes to cells; format: cell-based; details: 0.025 mg/mL antibody fragment, PBS, 4° C., 1 hour
Description: (§1) The A431-tFR and A431-MOCK cells provided by the IRCSS Foundation, National Cancer Institute, Milan, Italy, were grown in the modified Dulbecco culture medium (DMEM, Merck, Kenilworth, USA). IGROV-1 cells (ATCC, UK) were cultured in RPMI-1640 (RPMI-1640, Merck, Kenilworth, USA). The KB cells (ATCC, UK) were cultured in RPMI-1640 without folic acid (RPMI-1640 without folic acid, Merck, Kenilworth, USA). All culture media were added with 10% inactivated fetal bovine serum (FBS), 1% penicillin-streptomycin and 1% glutamine at 37° C., 95% humidity with 5% CO2. The cells were divided every 3-4 days before reaching confluence. In these experiments, the functionalized nanocubes of the invention comprising the antibody fragment in a quantity of 0.025 mg/mL were incubated in PBS at 4° C. for 1 hour with 5×10^5 cells of the cell lines indicated above. As a negative control, the non-functionalised nanocubes with polymer coating were used. Then, after three washes, the cells were incubated for 1 hour at 4° C. with the primary antibody that binds to the myc sequence of the C4 antibody fragment. Following a wash in PBS a secondary antibody conjugated to the fluorescent probe Alexa-488 was added to the cells, capable of binding the Fc portion of the primary antibody.

[4] = system: KB cells (high natural expression of folate receptors); experiment: as above; format: cell-based; details: 0.025 mg/mL antibody fragment, PBS, 4° C., 1 hour
Description: as §1

[5] = system: A431-MOCK cells (do not express the folate receptor); experiment: as above; format: cell-based; details: 0.025 mg/mL antibody fragment, PBS, 4° C., 1 hour
Description: as §1

[6] = system: IGROV-1 cells (high natural expression of folate receptors); experiment: as above; format: cell-based; details: 0.025 mg/mL antibody fragment, PBS, 4° C., 1 hour
Description: as §1

IGROV-1 cells [7] = experiment: Comet assay for DNA cross-linking; format: cell-based; details: 24, 48, 72 hours incubation, then H2O2
Description: Furthermore, once released from the nanocubes, platinum must be incorporated into the cell nuclei and must form crosslinks with the DNA. In fact, its toxicity depends on the impossibility for cells to replicate and transcribe their genetic makeup due to the presence of platinum-DNA complexes. Thus, to evaluate the presence of cross-linking in the DNA of cells treated with nanocubes, a Comet assay was performed, whose results are illustrated in the images in FIG. 7, acquired with a confocal microscope. In this experiment, the cell samples examined of IGROV-1 cells were incubated with the nanocubes with antibody but without platinum (in FIG. 7 indicated as NCs_C4) and with the nanocubes of the invention with antibody and oxaliplatin (indicated in the figure as NCs_OHP_C4) for 24, 48 and 72 hours, so they were treated with H2O2 hydrogen peroxide. As a control, IGROV-1 cells were used, treated with the same nanocubes, with and without platinum, but without treatment with hydrogen peroxide.
The toxicity observed in the cells following treatment with functionalized nanocubes of the invention, we can conclude that it results from the combined effects of hyperthermia and toxicity induced by the platinum-based drug.

IGROV-1 cells [8] = experiment: Confocal laser scanning microscopy (CLSM) of nanocube internalization; format: cell-based
[9] = Release of platinum from nanocubes in citrate buffer at different pH; format: physicochemical; details: pH 5.5, 5 and 4.5
From the text: Firstly, in a test tube, the release of platinum from the citrated buffer nanocubes at different pH was verified, according to the expected acidity values for endosomes, late endosomes and lysosomes (pH=5.5, 5 and 4.5 respectively). It has thus been verified that the release of platinum is pH dependent and that the maximum amount of platinum released is obtained at the lowest pH, i.e. at pH 4.5, which corresponds to the pH of the lysosomal environment.

[10] = 24, 48 and 72 hours, oxaliplatin amount or nanocube concentration as for loaded nanocubes

| Molecule | toxicity (cell viability, Presto blue) (IGROV-1 cells [1]; [10]) | cell viability after treatment (IGROV-1 cells [2]; free drug, 140 μM oxaliplatin (28 μg platinum), 24, 48, 120 hours) | cell viability post-incubation (p.i.) (IGROV-1 cells [1]; 24 hours of treatment, then fresh medium 24, 48, 72 hours) | toxicity (cell viability, Presto blue) (IGROV-1 cells [1]; 48 hours incubation, Fe 0.05, 0.1, 0.15 g/L = 1.3, 2.6, 3.9 μM oxaliplatin) | cell viability post-incubation (p.i.) (IGROV-1 cells [1]; 48 hours of treatment, then fresh medium up to 72 hours) | toxicity (cell viability, Presto blue) (IGROV-1 cells [1]; 72 hours incubation vs 48 hours, Fe 0.05, 0.1, 0.15 g/L = 1.3, 2.6, 3.9 μM oxaliplatin) | nanocube binding to cells (fluorescence intensity vs. cell count) [3] | nanocube binding to cells (fluorescence intensity vs. cell count) [4] | nanocube binding to cells (fluorescence intensity vs. cell count) [5] | nanocube binding to cells (fluorescence intensity vs. cell count) [6] | DNA trace in Comet assay (IGROV-1 cells [7]) | cell viability at 24 hours (IGROV-1 cells [2]) | cell viability at 48 hours (IGROV-1 cells [2]) | cell viability at 120 hours (IGROV-1 cells [2]) | localization of nanocubes in cells (IGROV-1 cells [8]; 2 hours incubation at 37° C.) | localization of nanocubes in cells (IGROV-1 cells [8]; 4 hours incubation at 37° C.) | localization of nanocubes in cells (IGROV-1 cells [8]; 12 hours incubation at 37° C.) | pH of maximum amount of platinum released [9] | release of platinum [9] |
| --- | --- | --- | --- | --- | --- | --- | --- | --- | --- | --- | --- | --- | --- | --- | --- | --- | --- | --- | --- |
| O=C1[O][Pt]2([NH][C@@H]3CCCC[C@H]3[NH]2)[O]C1=O [oxaliplatin, reference compound] | moderate toxicity | slightly affected |  |  |  |  |  |  |  |  |  |  |  |  |  |  |  |  |  |
| B1 |  |  | decreases after 24 hours of treatment (post-incubation, p.i.) for the next 24 hours and then goes up again after 48 and 72 hours post-incubation | Serious toxicity | decreases again for the next 72 hours | increased | nanocube binding was demonstrated | nanocube binding was demonstrated | no binding was found | nanocube binding was demonstrated | progressive delay in migration reaching a maximum after 72 hours | significantly modified cell viability | further compromised | about 40% | most of the nanocubes were located at the cell membrane | progressive internalization | complete internalization | 4.5 | pH dependent |
| B2 | no toxicity |  |  |  |  |  |  |  |  |  | traces of extensive damage | significantly modified cell viability | began to show a recovery | 95% |  |  |  |  |  |
